From publication PMC7528652, “Xrn1p acts at multiple steps in the budding-yeast RNAi pathway to enhance the efficiency of silencing” come the findings set out here.

The target of this series is T1, Ago1p (WT) (Naumovozyma castellii, UniProt D5SHI8 2-1299).
T1 sequence: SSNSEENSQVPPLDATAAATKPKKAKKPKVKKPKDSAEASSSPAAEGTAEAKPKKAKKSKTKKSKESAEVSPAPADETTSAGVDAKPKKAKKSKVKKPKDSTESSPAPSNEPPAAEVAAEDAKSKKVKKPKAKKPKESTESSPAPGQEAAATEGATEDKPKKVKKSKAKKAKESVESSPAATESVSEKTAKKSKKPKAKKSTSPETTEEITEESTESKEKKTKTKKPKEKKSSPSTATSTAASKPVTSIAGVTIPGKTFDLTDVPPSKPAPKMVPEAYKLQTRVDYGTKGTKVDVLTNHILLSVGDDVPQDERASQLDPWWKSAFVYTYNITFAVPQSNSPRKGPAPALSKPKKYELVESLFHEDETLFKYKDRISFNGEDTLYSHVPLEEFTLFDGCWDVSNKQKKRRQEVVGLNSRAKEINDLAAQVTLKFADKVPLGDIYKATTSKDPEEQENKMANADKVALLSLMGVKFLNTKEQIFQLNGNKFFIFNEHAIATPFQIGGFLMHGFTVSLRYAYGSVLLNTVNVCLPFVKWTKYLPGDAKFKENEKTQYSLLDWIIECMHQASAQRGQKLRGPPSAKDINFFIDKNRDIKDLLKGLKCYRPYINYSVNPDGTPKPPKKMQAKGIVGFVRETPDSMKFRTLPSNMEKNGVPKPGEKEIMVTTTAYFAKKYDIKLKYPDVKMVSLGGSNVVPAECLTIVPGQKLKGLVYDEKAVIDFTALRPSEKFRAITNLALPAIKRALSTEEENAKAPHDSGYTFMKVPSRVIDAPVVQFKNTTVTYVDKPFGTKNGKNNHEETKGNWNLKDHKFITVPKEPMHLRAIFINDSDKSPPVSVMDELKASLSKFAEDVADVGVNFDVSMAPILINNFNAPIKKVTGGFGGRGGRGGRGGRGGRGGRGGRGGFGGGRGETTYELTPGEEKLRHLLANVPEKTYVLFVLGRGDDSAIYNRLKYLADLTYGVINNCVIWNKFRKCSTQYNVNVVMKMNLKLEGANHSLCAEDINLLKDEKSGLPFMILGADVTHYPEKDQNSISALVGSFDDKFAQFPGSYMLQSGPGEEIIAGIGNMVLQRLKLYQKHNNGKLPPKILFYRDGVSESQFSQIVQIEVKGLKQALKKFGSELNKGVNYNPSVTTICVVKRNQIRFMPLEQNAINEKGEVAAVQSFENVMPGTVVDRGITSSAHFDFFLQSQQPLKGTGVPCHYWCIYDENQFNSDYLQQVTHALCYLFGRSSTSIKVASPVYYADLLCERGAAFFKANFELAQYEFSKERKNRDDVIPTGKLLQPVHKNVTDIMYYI
Put plainly: filter binding (nitrocellulose-nylon); preincubated with 200 nM WT Xrn1p: bound siRNA enhanced; 50 mM Hepes pH 7.6, 300 mM potassium glutamate, 10 mM NaCl, 5 mM Mg acetate, 1 mM EGTA, 1 mM EDTA, 10% glycerol, 0.01% NP-40, 5 mM DTT, 30 C. To be noted: protein: recombinant; tags: N-terminal 3xFLAG-SUMO-TEV in expression construct; tag state after purification not in material; label: 32P 5' end of guide strand (S68); 21 bp, 2 nt 3' overhangs on both strands.

B1: miR-20a siRNA duplex (dsRNA)
RNA 1: UAAAGUGCUUAUAGUGCAGGUAG
RNA 2: ACCUGCACUAUAAGCACUUUAAG
For B1, the binding result is on record as “binds”.
